The chains are these.
T1: interleukin-23 receptor (IL-23R) (human, UniProt Q5VWK5 24-629)
T1 sequence (looked up): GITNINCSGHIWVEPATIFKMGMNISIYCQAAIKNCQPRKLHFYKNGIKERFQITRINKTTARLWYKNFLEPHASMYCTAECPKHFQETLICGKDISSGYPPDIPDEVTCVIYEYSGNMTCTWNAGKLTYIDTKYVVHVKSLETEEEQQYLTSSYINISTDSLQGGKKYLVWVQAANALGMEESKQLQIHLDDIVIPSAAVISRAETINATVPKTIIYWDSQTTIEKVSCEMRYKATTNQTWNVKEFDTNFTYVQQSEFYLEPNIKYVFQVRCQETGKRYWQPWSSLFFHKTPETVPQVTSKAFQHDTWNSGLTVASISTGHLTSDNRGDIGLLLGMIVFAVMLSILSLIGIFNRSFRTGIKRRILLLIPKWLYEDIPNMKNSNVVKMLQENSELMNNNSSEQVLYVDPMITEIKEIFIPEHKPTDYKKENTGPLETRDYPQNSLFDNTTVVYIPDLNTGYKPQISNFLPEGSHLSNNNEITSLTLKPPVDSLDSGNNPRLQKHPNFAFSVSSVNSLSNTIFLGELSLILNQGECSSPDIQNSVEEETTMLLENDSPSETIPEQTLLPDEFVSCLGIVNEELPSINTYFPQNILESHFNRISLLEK

B1: Peptide of SEQ ID NO: 288 (peptide)
peptide: XNTXKXXXXKNL
modifications: Ac-[Pen]-N-T-[W(7-OMe)]-[Lys(Ac)]-[Pen]-Phe[4-(2-aminoethoxy)]-[2-Nal]-[a-MeLys]-[Lys(Ac)]-N-[(D)Leu]-NH2; Pen-Pen disulfide
B2: Peptide of SEQ ID NO: 282 (peptide)
peptide: XNTXQXXXXENX
modifications: Ac-[Pen]-N-T-[W(7-Me)]-Q-[Pen]-Phe[4-(2-aminoethoxy)]-[2-Nal]-[a-MeLys]-E-N-[bA]-NH2; Pen-Pen disulfide
B3: Peptide of SEQ ID NO: 354 (peptide)
peptide: XNTXKXXXXKNN
modifications: Ac-[Pen]-N-T-[W(7-Me)]-[Lys(Ac)]-[Pen]-Phe[4-(2-aminoethoxy)]-[2-Nal]-[a-MeLeu]-[Lys(Ac)]-N-[(D)Asn]-NH2; Pen-Pen disulfide
B4: Peptide of SEQ ID NO: 357 (peptide)
peptide: XNTXKXXXXXNL
modifications: not fully specified; Ac-[Pen]-N-T-[W(7-Me)]-[Lys(Ac)]-[Pen]-Phe[4-(2-aminoethoxy)]-[2-Nal]-[a-MeLys]-[Lys(cyclohexyl)]-N-[(D)Leu]-NH2; Pen-Pen disulfide
B5: Peptide of SEQ ID NO: 358 (peptide)
peptide: XNTXKXXXXXNL
modifications: Ac-[Pen]-N-T-[W(7-Me)]-[Lys(Ac)]-[Pen]-Phe[4-(2-aminoethoxy)]-[2-Nal]-[a-MeLys]-[Lys(octanoic)]-N-[(D)Leu]-NH2; Pen-Pen disulfide
B6: Peptide of SEQ ID NO: 214 (peptide)
peptide: XNTXQXXXXKHX
modifications: Ac-[Pen]-NT-[W(7-Me)]-Q-[Pen]-Phe[4-(2-aminoethoxy)]-[2-Nal]-[a-MeLeu]-[Lys(Ac)]-H-[bA]-NH2; Pen-Pen disulfide
B7: Peptide of SEQ ID NO: 315 (peptide)
peptide: XNTXXXXXXKNL
modifications: Ac-[Pen]-N-T-[W(7-Me)]-[Lys(IVA)]-[Pen]-Phe[4-(2-aminoethoxy)]-[2-Nal]-[a-MeLys]-[Lys(Ac)]-N-[(D)Leu]-NH2; Pen-Pen disulfide
B8: Peptide of SEQ ID NO: 280 (peptide)
peptide: Ac-[Pen]NTX[Cit][Pen][AEF][2Nal][αMeK]K(Ac)[βAla][βAla]-NH2
modifications: disulfide 1-6; not fully specified (residue 4); printed as Ac-[Pen]-N-T-[W(1-Me)]-[Cit]-[Pen]-Phe[4-(2-aminoethoxy)]-[2-Nal]-[a-MeLys]-[Lys(Ac)]-[bA]-[bA]-NH2, Pen-Pen disulfide
B9: Peptide of SEQ ID NO: 212 (peptide)
peptide: XNTXQXXXXKPX
modifications: Ac-[Pen]-NT-[W(7-Me)]-Q-[Pen]-Phe[4-(2-aminoethoxy)]-[2-Nal]-[a-MeLeu]-[Lys(Ac)]-[(D)Pro]-[bA]-NH2; Pen-Pen disulfide
B10: Peptide of SEQ ID NO: 285 (peptide)
peptide: Ac-[Pen]NT[Trp(7-nPr)]K(Ac)[Pen][AEF][2Nal][αMeK]K(Ac)N[dL]-NH2
modifications: disulfide 1-6
SMILES: CCCc1cccc2c(C[C@@H]3NC(=O)[C@H]([C@@H](C)O)NC(=O)[C@H](CC(N)=O)NC(=O)[C@@H](NC(C)=O)C(C)(C)SSC(C)(C)[C@@H](C(=O)N[C@@H](Cc4ccc(OCCN)cc4)C(=O)N[C@@H](Cc4ccc5ccccc5c4)C(=O)N[C@@](C)(CCCCN)C(=O)N[C@@H](CCCCNC(C)=O)C(=O)N[C@@H](CC(N)=O)C(=O)N[C@H](CC(C)C)C(N)=O)NC(=O)[C@H](CCCCNC(C)=O)NC3=O)c[nH]c12
B11: Peptide of SEQ ID NO: 297 (peptide)
peptide: XNTXQXXXXKNK
modifications: Ac-[Pen]-N-T-[W(7-OMe)]-Q-[Pen]-Phe[4-(2-aminoethoxy)]-[2-Nal]-[a-MeLys]-[Lys(Ac)]-N-[(D)Lys]-NH2; Pen-Pen disulfide
B12: Peptide of SEQ ID NO: 213 (peptide)
peptide: XNTXQXXXXKFX
modifications: Ac-[Pen]-NT-[W(7-Me)]-Q-[Pen]-Phe[4-(2-aminoethoxy)]-[2-Nal]-[a-MeLeu]-[Lys(Ac)]-[(D)Phe]-[bA]-NH2; Pen-Pen disulfide
B13: Peptide of SEQ ID NO: 316 (peptide)
peptide: XNTXXXXXXKNL
modifications: not fully specified; Ac-[Pen]-N-T-[W(7-Me)]-[Lys(cyclohexyl)]-[Pen]-Phe[4-(2-aminoethoxy)]-[2-Nal]-[a-MeLys]-[Lys(Ac)]-N-[(D)Leu]-NH2; Pen-Pen disulfide
B14: Peptide of SEQ ID NO: 201 (peptide)
peptide: XNTXQXXXXKNX
modifications: Ac-[Pen]-NT-[W(7-Me)]-Q-[Pen]-Phe[4-(2-aminoethoxy)]-[2-Nal]-[a-MeLeu]-[Lys(Ac)]-N-[bA]-NH2; Pen-Pen disulfide
B15: Peptide of SEQ ID NO: 356 (peptide)
peptide: XNTXKXXXXXNL
modifications: Ac-[Pen]-N-T-[W(7-Me)]-[Lys(Ac)]-[Pen]-Phe[4-(2-aminoethoxy)]-[2-Nal]-[a-MeLys]-[Lys(IVA)]-N-[(D)Leu]-NH2; Pen-Pen disulfide

Starred links: 1 amine or outer side, 2 acyl side, 3 side chain; linkers in the order of their positions; H or OH if unused. Positions of bridges follow the written chain, without caps; N, C: chain ends. Non-standard residues stand in square brackets, D forms with d. Trp(7-nPr) = CCCc1cccc2c(C[C@H](N[*:1])C(=O)[*:2])c[nH]c12; Trp(7-OMe) = COc1cccc2c(C[C@H](N)C(=O)O)c[nH]c12; Trp(7-Me) = Cc1cccc2c(C[C@H](N)C(=O)O)c[nH]c12; Trp(1-Me) = Cn1cc(C[C@H](N)C(=O)O)c2ccccc21; 2Nal = N[C@@H](Cc1ccc2ccccc2c1)C(=O)O; AEF = NCCOc1ccc(C[C@H](N)C(=O)O)cc1; Cit = NC(=O)NCCC[C@H](N)C(=O)O; Pen = CC(C)(S)[C@H](N)C(=O)O; αMeK = C[C@](N)(CCCCN)C(=O)O; βAla = NCCC(=O)O

The target in the first test is T1, interleukin-23 receptor (IL-23R). The experiment in a line: cell-based or functional assay.
As to B1, the “pStat3 HTRF IC50” value came to 1.48 nM.

With B2, the “pStat3 HTRF IC50” value turned out to be 1.37 nM.

Regarding B3, the “pStat3 HTRF IC50” value stood at 0.283 nM.

On to B4, for which the “pStat3 HTRF IC50” value stood at 0.331 nM.

For B5, the “pStat3 HTRF IC50” value turned out to be 3.03 nM.

As to B6, the “pStat3 HTRF IC50” value turned out to be 1.53 nM.

Turning to B7, the “pStat3 HTRF IC50” value turned out to be 1.41 nM.

Regarding Ac-[Pen]NT[Trp(7-Me)]Q[Pen][AEF][Trp(1-Me)][αMeK]K(Ac)N[βAla]-NH2 (disulfide 1-6) [Peptide of SEQ ID NO: 283], the “pStat3 HTRF IC50” value turned out to be 4.52 nM.

For the molecule B8, the “pStat3 HTRF IC50” value worked out at 17.1 nM.

For the molecule B9, the “pStat3 HTRF IC50” value stood at 36.5 nM.

Take B10: the “pStat3 HTRF IC50” value was 0.849 nM.

For the molecule B11, the “pStat3 HTRF IC50” value came out at 1.04 nM.

Turning to Ac-[Pen]NT[Trp(7-OMe)][Cit][Pen][AEF][2Nal][αMeK]K(Ac)N[dK]-NH2 (disulfide 1-6 (inferred)) [Peptide of SEQ ID NO: 300], the “pStat3 HTRF IC50” value is more than 1 µM.

On to B12, for which the “pStat3 HTRF IC50” value turned out to be 35.5 nM.

Ac-[Pen]ST[Trp(7-Me)]K(Ac)[Pen][AEF][2Nal][αMeK]K(Ac)N[dL]-NH2 (disulfide 1-6 (inferred)) [Peptide of SEQ ID NO: 334]: the “pStat3 HTRF IC50” value worked out at 0.55 nM.

Regarding B13, the “pStat3 HTRF IC50” value came out at 5.6 nM.

B14: the “pStat3 HTRF IC50” value amounted to 1.05 nM.

Consider B15, for which the “pStat3 HTRF IC50” value came out at 0.193 nM.

The next test shares this target. Description: cell-based or functional assay. This is another data set of the same source.
Take B3: the “NK Cell Assay IC50” value turned out to be 1.62 nM.

B4: the “NK Cell Assay IC50” value was found to be 3.8 nM.

Regarding B5, the “NK Cell Assay IC50” value is 6.3 nM.

Regarding B6, the “NK Cell Assay IC50” value was 6.3 nM.

B9: the “NK Cell Assay IC50” value worked out at 157 nM.

With B12, the “NK Cell Assay IC50” value was determined as 60 nM.

On to Ac-[Pen]ST[Trp(7-Me)]K(Ac)[Pen][AEF][2Nal][αMeK]K(Ac)N[dL]-NH2 (disulfide 1-6 (inferred)) [Peptide of SEQ ID NO: 334], for which the “NK Cell Assay IC50” value was 4.52 nM.

Consider B14, for which the “NK Cell Assay IC50” value came to 3.06 nM.

For B15, the “NK Cell Assay IC50” value is 4.01 nM.

The record behind these values is US20220041658A1 (PROTAGONIST THERAPEUTICS, published 2022).
